One protein from paper PMC5513672 (Chemical research in toxicology, 2017) can be followed below.

The data set concerns the molecule itself. In words: native gel or EMSA. A general note: Mobility shift assays separate free from complexed probe on a gel.

B1: Human recombinant ALDH2 protein (mitochondrial aldehyde dehydrogenase), untreated (enzyme, UniProt P05091 18-517, looked up)
chain: SAAATQAVPAPNQQPEVFCNQIFINNEWHDAVSRKTFPTVNPSTGEVICQVAEGDKEDVDKAVKAARAAFQLGSPWRRMDASHRGRLLNRLADLIERDRTYLAALETLDNGKPYVISYLVDLDMVLKCLRYYAGWADKYHGKTIPIDGDFFSYTRHEPVGVCGQIIPWNFPLLMQAWKLGPALATGNVVVMKVAEQTPLTALYVANLIKEAGFPPGVVNIVPGFGPTAGAAIASHEDVDKVAFTGSTEIGRVIQVAAGSSNLKRVTLELGGKSPNIIMSDADMDWAVEQAHFALFFNQGQCCCAGSRTFVQEDIYDEFVERSVARAKSRVVGNPFDSKTEQGPQVDETQFKKILGYINTGKQEGAKLLCGGGIAADRGYFIQPTVFGDVQDGMTIAKEEIFGPVMQILKFKTIEEVVGRANNSTYGLAAAVFTKDLDKANYLSQALQAGTVWVNCYDVFGAQSPFGGYKMSGSGRELGEYGLQAYTEVKTVTVKVPQKNS
Take B1: the binding result was “binds”.
